Values of other authors, collected in patent US10663473B2, “Method of identifying a status of a mucosal intestinal epithelial barrier to improve treatment of inflammatory bowel disease” (Maximus Diagnostic Technologies LLC, priority 2016, dated 2020).

System: IBD patients
Conditions: all CD patients

B1: certolizumab pegol: anti-TNF agent, trade name Cimzia, sold by UCB S.A. (antibody, chains of the INN, looked up, V domains shown)
VH: EVQLVESGGGLVQPGGSLRLSCAASGYVFTDYGMNWVRQAPGKGLEWMGWINTYIGEPIYADSVKGRFTFSLDTSKSTAYLQMNSLRAEDTAVYYCARGYRSYAMDYWGQGTLVTVSS
VL: DIQMTQSPSSLSASVGDRVTITCKASQNVGTNVAWYQQKPGKAPKALIYSASFLYSGVPYRFSGSGSGTDFTLTISSLQPEDFATYYCQQYNIYPLTFGQGTKVEIK
modifications: Fab' PEG
long-term clinical response rate: 50%
